Assay results reported in publication PMC6648891.

Biological target: T1, FOXC2 DBD (Homo sapiens, UniProt Q99958 60-198)
T1 sequence: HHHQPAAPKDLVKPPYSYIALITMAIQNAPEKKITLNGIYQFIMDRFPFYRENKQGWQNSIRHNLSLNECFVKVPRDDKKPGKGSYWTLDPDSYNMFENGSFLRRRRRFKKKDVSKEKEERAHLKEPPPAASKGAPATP
Assay: EMSA

B1: 16 bp EMSA DNA (dsDNA)
DNA 1: CAAGGTAAACAAACCA
DNA 2: TGGTTTGTTTACCTTG
**Q.** For B1, which Kd is on record?
**A.** 26.4 µM
